Experimental data as given in IntAct's records for PubMed 19571008.

B1: Non-homologous end-joining protein 1 (Saccharomyces cerevisiae), Q06148 (parent)
chain: MDSELKGQQLSDAEWCVKKINGEGNCLLLFLPMSSPTTIVMIVLVSLERLVPYVFKLSQTQLSQQCQSQGFTDSISLNLIKLKLMDILQAPQEINQIGLVDSNLVFSFDVSADITVSINSVPSHVTKDMFYMILQSLCMLLLKLVNLSTQYHYVQRDILNEKQKCLDFLLISLRDLDGGSKVISQWAPENSKNYESLQQCTDDDIIKKLLHKGKFQHQEFLADSLKTLLSLRNKFQDVSRFEESGELNKKERVRFPAVNHFYNDDFELQADPTNEARPNSRGKIKPKTDFKPKSRESSTSSQLRLENFSESEATPEKTKSSSSLVEEYPQKKRKFGKVRIKN

Variants of: B1
Conditions: with srs2_yeast SRS2, P12954
Sequence of srs2_yeast SRS2, P12954 (P12954 whole entry): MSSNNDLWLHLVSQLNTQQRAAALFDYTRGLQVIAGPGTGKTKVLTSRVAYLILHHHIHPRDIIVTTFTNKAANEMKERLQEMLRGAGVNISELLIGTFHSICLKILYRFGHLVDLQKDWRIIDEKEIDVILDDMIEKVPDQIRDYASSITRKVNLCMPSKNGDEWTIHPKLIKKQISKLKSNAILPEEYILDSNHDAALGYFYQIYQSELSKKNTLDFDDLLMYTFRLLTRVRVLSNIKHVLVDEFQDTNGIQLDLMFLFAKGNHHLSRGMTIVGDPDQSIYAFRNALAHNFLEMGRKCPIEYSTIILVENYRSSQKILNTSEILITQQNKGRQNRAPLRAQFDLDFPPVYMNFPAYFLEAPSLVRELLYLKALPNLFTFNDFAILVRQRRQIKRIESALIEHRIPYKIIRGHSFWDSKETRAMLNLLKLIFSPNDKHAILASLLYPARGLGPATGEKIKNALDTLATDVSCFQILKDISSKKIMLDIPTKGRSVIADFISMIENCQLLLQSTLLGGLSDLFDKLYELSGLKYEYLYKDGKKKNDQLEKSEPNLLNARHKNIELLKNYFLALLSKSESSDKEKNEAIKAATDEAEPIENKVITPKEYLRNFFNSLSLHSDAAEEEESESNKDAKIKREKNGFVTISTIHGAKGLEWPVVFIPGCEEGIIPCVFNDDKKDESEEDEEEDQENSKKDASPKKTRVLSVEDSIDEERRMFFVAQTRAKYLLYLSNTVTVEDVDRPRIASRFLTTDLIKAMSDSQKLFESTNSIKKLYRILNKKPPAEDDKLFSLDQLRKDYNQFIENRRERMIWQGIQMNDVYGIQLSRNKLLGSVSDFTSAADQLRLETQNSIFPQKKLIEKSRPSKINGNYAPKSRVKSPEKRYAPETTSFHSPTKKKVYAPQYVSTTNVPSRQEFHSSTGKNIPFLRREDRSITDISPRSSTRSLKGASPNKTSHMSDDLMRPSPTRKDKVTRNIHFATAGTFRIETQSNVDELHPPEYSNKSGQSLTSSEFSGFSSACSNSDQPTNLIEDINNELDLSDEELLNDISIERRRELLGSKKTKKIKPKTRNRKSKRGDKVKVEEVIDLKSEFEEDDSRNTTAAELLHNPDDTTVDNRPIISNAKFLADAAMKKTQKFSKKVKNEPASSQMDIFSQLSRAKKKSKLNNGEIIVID

Row | effect of a mutation on the interaction | Variant
1 | disrupting interaction | MDSELKGQQLSDAEWCVKKINGEGNCLLLFLPMSSPTTIVMIVLVSLERLVPYVFKLSQTQLSQQCQSQGFTDSISLNLIKLKLMDILQAPQEINQIGLVDSNLVFSFDVSADITVSINSVPSHVTKDMFYMILQSLCMLLLKLVNLSTQYHYVQRDILNEKQKCLDFLLISLRDLDGGSKVISQWAPENSKNYESLQQCTDDDIIKKLLHKGKFQHQEFLADSLKTLLSLRNKFQDVSRFEESGELNKKERVRFPAVNHFYNDDFELQADPTNEARPNSRGKIKPKTDFKPKSREASTSSQLRLENFSESEATPEKTKSSSSLVEEYPQKKRKFGKVRIKN [S297A]
2 | disrupting interaction | MDSELKGQQLSDAEWCVKKINGEGNCLLLFLPMSSPTTIVMIVLVSLERLVPYVFKLSQTQLSQQCQSQGFTDSISLNLIKLKLMDILQAPQEINQIGLVDSNLVFSFDVSADITVSINSVPSHVTKDMFYMILQSLCMLLLKLVNLSTQYHYVQRDILNEKQKCLDFLLISLRDLDGGSKVISQWAPENSKNYESLQQCTDDDIIKKLLHKGKFQHQEFLADSLKTLLSLRNKFQDVSRFEESGELNKKERVRFPAVNHFYNDDFELQADPTNEARPNSRGKIKPKTDFKPKSREAATSSQLRLENFSESEATPEKTKSSSSLVEEYPQKKRKFGKVRIKN [S297A;S298A]
3 | disrupting interaction | MDSELKGQQLSDAEWCVKKINGEGNCLLLFLPMSSPTTIVMIVLVSLERLVPYVFKLSQTQLSQQCQSQGFTDSISLNLIKLKLMDILQAPQEINQIGLVDSNLVFSFDVSADITVSINSVPSHVTKDMFYMILQSLCMLLLKLVNLSTQYHYVQRDILNEKQKCLDFLLISLRDLDGGSKVISQWAPENSKNYESLQQCTDDDIIKKLLHKGKFQHQEFLADSLKTLLSLRNKFQDVSRFEESGELNKKERVRFPAVNHFYNDDFELQADPTNEARPNSRGKIKPKTDFKPKSRESATSSQLRLENFSESEATPEKTKSSSSLVEEYPQKKRKFGKVRIKN [S298A]
